Columns and labels:
CD73 in human serum = target: T1, CD73 in human serum (human, UniProt P21589 27-574); experiment: cell-based or functional assay
T1 sequence: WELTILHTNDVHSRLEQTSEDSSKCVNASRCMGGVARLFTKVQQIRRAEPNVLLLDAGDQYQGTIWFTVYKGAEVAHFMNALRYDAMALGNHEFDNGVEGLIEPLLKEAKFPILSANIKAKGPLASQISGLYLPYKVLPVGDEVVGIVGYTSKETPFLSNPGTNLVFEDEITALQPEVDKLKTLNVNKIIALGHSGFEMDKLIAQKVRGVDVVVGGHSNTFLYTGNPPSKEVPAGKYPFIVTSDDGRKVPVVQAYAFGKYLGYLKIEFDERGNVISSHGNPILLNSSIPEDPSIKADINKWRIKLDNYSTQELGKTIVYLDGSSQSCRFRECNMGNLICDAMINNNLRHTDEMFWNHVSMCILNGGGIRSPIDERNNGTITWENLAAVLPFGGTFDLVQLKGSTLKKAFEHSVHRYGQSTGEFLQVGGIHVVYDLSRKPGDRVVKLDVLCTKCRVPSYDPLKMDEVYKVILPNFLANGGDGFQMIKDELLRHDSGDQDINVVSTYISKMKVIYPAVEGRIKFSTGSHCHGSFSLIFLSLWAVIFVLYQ

[1] = target: T2, human CD73 expressed on cells (human, UniProt P21589 27-549); experiment: cell-based or functional assay
T2 sequence: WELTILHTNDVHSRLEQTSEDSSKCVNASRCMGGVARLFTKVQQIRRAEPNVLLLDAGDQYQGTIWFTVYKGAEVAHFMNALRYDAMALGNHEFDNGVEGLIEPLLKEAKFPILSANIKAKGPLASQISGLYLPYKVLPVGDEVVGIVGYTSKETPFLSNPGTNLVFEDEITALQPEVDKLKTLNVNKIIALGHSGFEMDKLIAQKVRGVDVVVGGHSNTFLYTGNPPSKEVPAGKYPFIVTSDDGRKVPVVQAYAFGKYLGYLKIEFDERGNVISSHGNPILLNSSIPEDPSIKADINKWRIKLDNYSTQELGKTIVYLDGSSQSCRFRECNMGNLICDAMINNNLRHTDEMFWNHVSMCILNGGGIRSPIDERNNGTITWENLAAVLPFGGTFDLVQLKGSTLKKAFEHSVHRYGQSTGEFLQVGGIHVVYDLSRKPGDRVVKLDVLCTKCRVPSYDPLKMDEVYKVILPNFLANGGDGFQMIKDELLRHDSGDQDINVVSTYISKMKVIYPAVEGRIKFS

B1: 2H4+2L1 anti-CD73 antibody (antibody, human IgG1, kappa, V domains shown)
VH: QIQLVQSGAEVKKPGASVKVSCKASGYTFASYNMYWVRQAPGQRLEWIGYIDPYNGGSSYNQKFKGRVTLTRDKSASTAYMELSSLRSEDTAVYYCARGYNNYKAWFAYWGQGTLVTVSS
VL: DIQMTQSPSSLSASVGDRVTITCKASQSVTNDVAWYQQKPGKAPKLLIYYASNRYTGVPSRFSGSGYGTDFTFTISSLQPEDIATYYCQQDYSSLTFGQGTKLEIKR
enzymatic inhibition, in vitro assay on human serum (IC50) (CD73 in human serum): 0.0123 µg/mL | enzymatic inhibition, in vitro assay on A375 tumor cells (IC50) [1]: 0.034 µg/mL | enzymatic inhibition, in vitro assay on MDA-MB231 tumor cells (IC50) [1]: 0.127 µg/mL | reversion of AMP inhibited T cell proliferation on CD4+ T cells (IC50) [1]: 0.0081 µg/mL | reversion of AMP inhibited T cell proliferation on CD8+ T cells (IC50) [1]: 0.0077 µg/mL
